Patent US20060275764

Biological target: Mannan-binding lectin (MBL), P11226
Sequence (P11226 21-248): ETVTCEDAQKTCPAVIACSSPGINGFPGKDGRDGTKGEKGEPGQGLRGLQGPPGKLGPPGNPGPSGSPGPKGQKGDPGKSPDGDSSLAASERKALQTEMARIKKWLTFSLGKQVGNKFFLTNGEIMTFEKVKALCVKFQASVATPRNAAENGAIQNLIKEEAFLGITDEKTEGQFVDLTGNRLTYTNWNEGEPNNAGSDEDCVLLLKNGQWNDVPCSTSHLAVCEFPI

B1: MASP-2 (MBL-associated serine protease 2), wild type, recombinant (protein)
chain: TPLGPKWPEPVFGRLASPGFPGEYANDQERRWTLTAPPGYRLRLYFTHFDLELSHLCEYDFVKLSSGAKVLATLCGQESTDTERAPGKDTFYSLGSSLDITFRSDYSNEKPFTGFEAFYAAEDIDECQVAPGEAPTCDHHCHNHLGGFYCSCRAGYVLHRNKRTCSALCSGQVFTQRSGELSSPEYPRPYPKLSSCTYSISLEEGFSVILDFVESFDVETHPETLCPYDFLKIQTDREEHGPFCGKTLPHRIETKSNTVTITFVTDESGDHTGWKIHYTSTAQPCPYPMAPPNGHVSPVQAKYILKDSFSIFCETGYELLQGHLPLKSFTAVCQKDGSWDRPMPACSIVDCGPPDDLPSGRVEYITGPGVTTYKAVIQYSCEETFYTMKVNDGKYVCEADGFWTSSKGEKSLPVCEPVCGLSARTTGGRIYGGQKAKPGDFPWQVLILGGTTAAGALLYDNWVLTAAHAVYEQKHDASALDIRMGTLKRLSPHYTQAWSEAVFIHEGYTHDAGFDNDIALIKLNNKVVINSNITPICLPRKEAESFMRTDDIGTASGWGLTQRGFLARNLMYVDIPIVDHQKCTAAYEKPPYPRGSVTANMLCAGLESGGKDSCRGDSGGALVFLDSETERWFVGGIVSWGSMNCGEAGQYGVYTKVINYIPWIENIISDF
MBL pathway activity (C4b deposition in mannan coated wells): Restoration of the MBL pathway was also achieved by adding recombinant MASP-2 to the patient serum
